Results: patent publication US20150071918A1, “PEPTIDES FOR THE TREATMENT OF CANCER” (H. LEE MOFFITT CANCER CENTER AND RESEARCH INSTITUTE, INC., priority 2012, published 2015)
Read-outs that look alike come from different tables or passages of the source. *1 amine or outer side, *2 acyl side, *3 side chain or, on linkers, in order; H or OH if unused. Where no end group is shown, it is not given here. [ ]: non-standard residue; d: D form. T1 = linker NH2CH2CH2N(SO2Me)CH2COOH, CS(=O)(=O)N(CCN[*:1])CC(=O)[*:2]; T3 = linker N(CH2)3CHCH2OCH2COOH; Nle = CCCC[C@H](N)C(=O)O

Key:
[1] = test system: peripheral blood mononuclear cells (PBMC); assay: Cell death in normal peripheral blood mononuclear cells, annexin V positivity and FACS; format: cell-based, human; conditions: 6.25-50 ug/ml, six hours
Experimental: Peripheral blood mononuclear cells (PBMC) were isolated from a normal donor. Cells were treated with 6.25, 12.5, 25 and 50 ug/ml for six hours and cell death was measured by annexin V positivity and FACS analysis.
CD34^+ hematopoietic progenitor cells were isolated from peripheral blood and treated for 2 hrs with integrin interaction inhibitors (12.5 and 50 μg/ml) and then plated in a methylcellulose media supplemented with growth factors supporting myeloid and erythroid colonies. Colonies were counted on day 12 post-plating. […] In addition, we evaluated the toxicity of integrin interaction inhibitors in normal peripheral blood mononuclear cells (PBMC).

H929 myeloma cells = format: cell-based, human; conditions: for IC50: read-out: IC50
Experimental: H929 cells were treated for 24 hours with varying concentrations of peptide. Cell death was measured by Topro-3 staining and FACS analysis. The IC50 values were obtained from linear regression analysis and an average value was obtained from 3 independent experiments.
Table 4 legend: Structure activity relationship in H929 myeloma cells of cyclic INTEGRIN INTERACTION INHIBITORS derivatives. The minimal bioactive core sequence of INTEGRIN INTERACTION INHIBITORS WSVVM (SEQ ID NO:33) was cyclized using 2 novel reduced amide bond beta turn promoters and KLKLK (SEQ ID NO:34) as the non-recognition sequence. H929 cells were treated with varying concentrations of the indicated peptide for 24 h. Cell viability was determined using Topro-3 staining and FACS analysis after drug treatment. IC50 values were generated from linear regressions generated from the dose response curves (n=mean of 3 independent experiments).
A colony forming assay was used to compare induced cell death in H929 multiple myeloma cells. Cells were treated with integrin interaction inhibitors, shown in FIG. 5 and Table 4, and cell death was measured following 24 hour peptide treatment by TOPRO-3 staining and FACS analysis.

[2] = target: Basigin (Homo sapiens (Human)) (UniProt P35613); assay: biotin-HYD1 NeutrAvidin pull-down of U266 membranes, LC-MS/MS
Chain of Basigin (Homo sapiens (Human)) (P35613 other isoform, or with tags, fused parts or gaps limits assumed): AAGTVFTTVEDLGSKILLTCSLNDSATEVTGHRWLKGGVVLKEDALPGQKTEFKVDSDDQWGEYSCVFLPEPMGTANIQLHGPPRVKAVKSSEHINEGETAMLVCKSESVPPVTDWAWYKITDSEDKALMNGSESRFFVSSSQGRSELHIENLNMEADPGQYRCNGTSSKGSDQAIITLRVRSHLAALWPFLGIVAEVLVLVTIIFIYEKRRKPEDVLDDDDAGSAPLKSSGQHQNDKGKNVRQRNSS

[3] = target: CD44 (endogenous, of NCI-H929, U266, U937 and HL-60 cells) (human) (UniProt P16070); assay: as above
Chain of CD44 (endogenous, of NCI-H929, U266, U937 and HL-60 cells) (human) (P16070 21-742 limits assumed): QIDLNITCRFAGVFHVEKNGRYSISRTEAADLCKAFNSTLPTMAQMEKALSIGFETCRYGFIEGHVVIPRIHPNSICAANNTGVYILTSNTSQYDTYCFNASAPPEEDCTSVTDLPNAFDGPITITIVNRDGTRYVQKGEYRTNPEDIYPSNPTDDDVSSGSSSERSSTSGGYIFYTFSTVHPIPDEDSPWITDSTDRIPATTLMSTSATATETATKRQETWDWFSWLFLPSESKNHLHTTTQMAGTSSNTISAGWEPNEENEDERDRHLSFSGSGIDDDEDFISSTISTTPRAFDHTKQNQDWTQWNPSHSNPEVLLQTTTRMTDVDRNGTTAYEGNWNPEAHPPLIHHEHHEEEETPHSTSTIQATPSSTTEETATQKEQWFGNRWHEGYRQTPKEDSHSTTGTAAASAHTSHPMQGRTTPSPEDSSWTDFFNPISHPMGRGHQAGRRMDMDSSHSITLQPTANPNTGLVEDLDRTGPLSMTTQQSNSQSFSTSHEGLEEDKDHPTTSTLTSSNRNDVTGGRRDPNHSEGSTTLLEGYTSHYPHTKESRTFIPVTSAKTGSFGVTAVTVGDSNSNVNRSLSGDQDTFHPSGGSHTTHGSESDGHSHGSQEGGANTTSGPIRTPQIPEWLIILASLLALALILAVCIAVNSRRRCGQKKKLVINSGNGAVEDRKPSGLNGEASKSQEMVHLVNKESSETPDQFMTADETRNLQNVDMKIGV

CD59 [4] = target: CD59 (UniProt P13987); assay: as above
Chain of CD59 (P13987 26-102 limits assumed): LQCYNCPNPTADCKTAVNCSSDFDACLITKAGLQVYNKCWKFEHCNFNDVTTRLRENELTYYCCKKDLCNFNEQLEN

[5] = target: Intercellular adhesion molecule 1 (ICAM1) (Homo sapiens (Human)) (UniProt P05362); assay: as above
Chain of Intercellular adhesion molecule 1 (ICAM1) (Homo sapiens (Human)) (P05362 28-532 limits assumed): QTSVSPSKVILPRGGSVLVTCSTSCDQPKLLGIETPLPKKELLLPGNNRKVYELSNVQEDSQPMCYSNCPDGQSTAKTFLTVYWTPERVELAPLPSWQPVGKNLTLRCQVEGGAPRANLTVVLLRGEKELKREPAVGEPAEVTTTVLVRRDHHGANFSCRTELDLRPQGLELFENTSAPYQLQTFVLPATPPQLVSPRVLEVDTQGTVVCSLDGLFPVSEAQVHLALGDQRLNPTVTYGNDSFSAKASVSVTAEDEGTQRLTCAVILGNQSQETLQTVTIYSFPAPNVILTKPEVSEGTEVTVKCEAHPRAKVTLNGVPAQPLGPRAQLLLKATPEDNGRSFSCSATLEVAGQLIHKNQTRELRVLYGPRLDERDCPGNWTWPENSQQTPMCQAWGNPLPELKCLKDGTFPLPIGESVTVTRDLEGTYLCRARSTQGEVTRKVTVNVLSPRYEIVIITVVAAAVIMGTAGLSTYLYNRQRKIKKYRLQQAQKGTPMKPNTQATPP

[6] = target: Intercellular adhesion molecule 3 (ICAM3) (Homo sapiens (Human)) (UniProt P32942); assay: as above
Chain of Intercellular adhesion molecule 3 (ICAM3) (Homo sapiens (Human)) (P32942 30-547 limits assumed): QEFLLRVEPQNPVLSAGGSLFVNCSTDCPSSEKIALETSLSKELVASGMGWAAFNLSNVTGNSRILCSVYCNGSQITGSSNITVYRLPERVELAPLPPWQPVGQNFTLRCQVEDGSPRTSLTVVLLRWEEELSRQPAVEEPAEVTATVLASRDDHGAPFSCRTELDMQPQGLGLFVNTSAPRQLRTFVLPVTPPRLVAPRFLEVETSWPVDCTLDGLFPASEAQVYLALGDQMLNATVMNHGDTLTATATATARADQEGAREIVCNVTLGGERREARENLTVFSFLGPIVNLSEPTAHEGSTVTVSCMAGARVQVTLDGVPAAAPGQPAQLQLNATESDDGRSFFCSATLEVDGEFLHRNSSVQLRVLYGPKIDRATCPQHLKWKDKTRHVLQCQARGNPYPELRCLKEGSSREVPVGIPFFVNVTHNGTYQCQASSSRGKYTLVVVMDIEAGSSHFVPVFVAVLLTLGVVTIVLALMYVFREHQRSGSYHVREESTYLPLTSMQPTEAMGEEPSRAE

[7] = target: Syndecan-1 (Homo sapiens (Human)) (UniProt P18827); assay: as above
Chain of Syndecan-1 (Homo sapiens (Human)) (P18827 23-310 L136Q/G259V limits assumed): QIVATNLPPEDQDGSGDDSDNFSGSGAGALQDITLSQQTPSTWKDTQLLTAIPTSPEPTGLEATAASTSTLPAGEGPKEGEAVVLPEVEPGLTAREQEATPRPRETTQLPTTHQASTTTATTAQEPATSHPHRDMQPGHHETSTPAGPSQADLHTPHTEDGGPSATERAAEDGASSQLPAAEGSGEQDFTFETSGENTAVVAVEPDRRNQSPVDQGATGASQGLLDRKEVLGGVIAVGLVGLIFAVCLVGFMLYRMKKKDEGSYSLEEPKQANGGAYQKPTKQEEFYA

[8] = target: Basigin (Homo sapiens (Human)) (UniProt P35613); assay: biotin-HYD1 NeutrAvidin pull-down of NCI-H929 membranes, LC-MS/MS
[9] = target: CD44 (endogenous, of NCI-H929, U266, U937 and HL-60 cells) (human) (UniProt P16070); assay: as above
CD59 [10] = target: CD59 (UniProt P13987); assay: as above
[11] = target: Neural cell adhesion molecule 1 (NCAM1) (Homo sapiens (Human)) (UniProt P13591); assay: as above
Chain of Neural cell adhesion molecule 1 (NCAM1) (Homo sapiens (Human)) (P13591 other isoform, or with tags, fused parts or gaps limits assumed): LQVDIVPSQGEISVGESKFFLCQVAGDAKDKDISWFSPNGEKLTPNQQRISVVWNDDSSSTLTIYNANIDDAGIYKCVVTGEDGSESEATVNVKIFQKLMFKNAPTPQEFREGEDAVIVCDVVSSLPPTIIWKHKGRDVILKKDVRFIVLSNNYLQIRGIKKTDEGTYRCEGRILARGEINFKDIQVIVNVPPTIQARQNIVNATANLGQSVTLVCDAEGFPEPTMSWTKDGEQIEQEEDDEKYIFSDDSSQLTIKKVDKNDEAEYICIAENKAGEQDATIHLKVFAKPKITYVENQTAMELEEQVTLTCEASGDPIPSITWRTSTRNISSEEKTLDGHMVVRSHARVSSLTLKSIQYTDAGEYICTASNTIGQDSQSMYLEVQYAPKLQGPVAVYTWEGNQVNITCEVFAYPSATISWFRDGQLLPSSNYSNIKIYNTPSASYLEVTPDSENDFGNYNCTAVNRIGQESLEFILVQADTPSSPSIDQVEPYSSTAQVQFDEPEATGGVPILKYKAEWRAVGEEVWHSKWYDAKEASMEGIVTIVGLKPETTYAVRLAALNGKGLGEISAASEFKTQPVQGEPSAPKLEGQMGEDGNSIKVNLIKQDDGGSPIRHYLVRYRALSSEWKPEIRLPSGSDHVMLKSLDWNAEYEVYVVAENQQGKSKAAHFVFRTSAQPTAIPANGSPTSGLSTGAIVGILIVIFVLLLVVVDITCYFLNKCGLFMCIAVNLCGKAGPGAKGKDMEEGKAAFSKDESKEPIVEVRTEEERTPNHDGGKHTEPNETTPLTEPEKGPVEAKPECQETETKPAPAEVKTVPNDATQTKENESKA

[12] = target: Syndecan-1 (Homo sapiens (Human)) (UniProt P18827); assay: as above
[13] = target: α4 integrin (Homo sapiens (Human)) (UniProt P13612); assay: as above
β1 integrin = β1 integrin (UniProt P05556); assay: as above
Chain of β1 integrin (P05556 21-798): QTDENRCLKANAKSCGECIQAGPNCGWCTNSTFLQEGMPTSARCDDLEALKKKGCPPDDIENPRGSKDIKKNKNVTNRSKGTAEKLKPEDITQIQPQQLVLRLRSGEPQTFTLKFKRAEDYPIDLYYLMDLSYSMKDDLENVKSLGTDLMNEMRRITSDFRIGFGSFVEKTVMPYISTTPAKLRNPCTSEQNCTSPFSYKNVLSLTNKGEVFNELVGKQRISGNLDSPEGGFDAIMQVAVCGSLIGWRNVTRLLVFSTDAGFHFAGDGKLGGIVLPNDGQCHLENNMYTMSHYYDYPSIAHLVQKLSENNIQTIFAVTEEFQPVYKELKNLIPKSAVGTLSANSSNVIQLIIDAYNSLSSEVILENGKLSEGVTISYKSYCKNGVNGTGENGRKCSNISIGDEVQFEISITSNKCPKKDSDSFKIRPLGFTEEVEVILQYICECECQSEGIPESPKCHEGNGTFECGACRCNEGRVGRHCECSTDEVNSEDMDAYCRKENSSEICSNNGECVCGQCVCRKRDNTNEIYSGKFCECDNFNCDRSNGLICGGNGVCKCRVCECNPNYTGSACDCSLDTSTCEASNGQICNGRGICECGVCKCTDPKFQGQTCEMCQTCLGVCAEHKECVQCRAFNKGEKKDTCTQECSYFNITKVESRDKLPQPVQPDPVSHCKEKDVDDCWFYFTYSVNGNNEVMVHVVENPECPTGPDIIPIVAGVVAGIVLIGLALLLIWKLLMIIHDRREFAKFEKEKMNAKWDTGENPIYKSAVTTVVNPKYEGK

[14] = target: recombinant human CD44 ectodomain (amino acids 20-178, His-tagged, refolded from E. coli) (human) (UniProt P16070); assay: SPR, recombinant CD44 ectodomain on biotin conjugated HYD1, two-state binding model
Chain of recombinant human CD44 ectodomain (amino acids 20-178, His-tagged, refolded from E. coli) (human) (P16070 20-178): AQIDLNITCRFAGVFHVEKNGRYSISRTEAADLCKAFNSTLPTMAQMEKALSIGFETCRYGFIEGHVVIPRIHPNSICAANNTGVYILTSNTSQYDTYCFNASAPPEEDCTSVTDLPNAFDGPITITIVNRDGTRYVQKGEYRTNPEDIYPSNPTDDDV

[15] = target: recombinant human CD44 ectodomain (amino acids 20-178, His-tagged, refolded from E. coli) (human) (UniProt P16070); assay: SPR, Biacore T100, recombinant CD44 ectodomain over biotin-HYD1 sensor chip, 1:1 binding model
CD59 [16] = target: CD59 (UniProt P13987); assay: LC-MS/MS of the biotin-HYD1 binding complex pulled down from NCI-H929 membranes (row CD59, column NCI-H929) [panel A.]
[17] = H929 myeloma cells, 24 h treatment, Topro-3 staining and FACS, mean of at least 3 independent experiments
[18] = Table 8, cyclic III peptide analogs, H929 cells

Which “cell death in PBMC” value [1] does the source give for `CC[C@@H](C)[C@@H](NC(=O)[C@H](N)CCCCN)C(=O)N[C@H](CCCCN)C(=O)N[C@H](CCSC)C(=O)N[C@@H](C(=O)N[C@@H](C(=O)N[C@H](CO)C(=O)N[C@H](Cc1c[nH]c2ccccc12)C(=O)N[C@H](CCCCN)C(=O)NCC(=O)O)[C@H](C)CC)C(C)C` [HYD1] here?
Its value is “more potent in MM cells (H929) compared to normal hematopoietic cells”.

What does the source list for “KLKLKT1WSVVMT1 (cyclo(KLKLK[T1]WSVVM[T1])) [Peptide 10]”?
IC50 (H929 myeloma cells; [17]): 1 µM; bioactivity relative to parent/comparator peptide (H929 myeloma cells; SAR statements, H929 cells): increases in activity relative to the inverso peptide; IC50 (H929 myeloma cells; Table 4, H929 myeloma cells, 24 h, Topro-3 staining and FACS, mean of 3 independent experiments): 6.7 µM; IC50 (H929 myeloma cells; Table 5, H929 multiple myeloma cells, 24 hour peptide treatment, mean and standard deviation of three independent experiments): 5.9 µM; IC50 (H929 myeloma cells; [18]): 6 µM

For “KLKLQT1N*VVAWT3 (cyclo(KLKLQ[T1][Nle]VVAW[T3])) [Peptide 19]”, which IC50 (H929 myeloma cells; [17]) is on record?
Its IC50 is 12 µM.

What about the IC50 (H929 myeloma cells; [18]) of the same molecule?
The IC50 was 19 µM.

What does the source list for “KLKQKT1N*VVAWT3 [17] (cyclo(KLKQK[T1][Nle]VVAW[T3])) [Peptide 17]”?
IC50 (H929 myeloma cells; [17]): 25 µM; IC50 (H929 myeloma cells; [18]): 13 µM

Which IC50 (H929 myeloma cells; [17]) does the source give for “KLKQKT1N*VVAWT3 [21] (cyclo(KLKQK[T1][Nle]VVAW[T3])) [Peptide 21]” here?
The IC50 was 39 µM.

And the IC50 (H929 myeloma cells; [18])?
The IC50 was 25 µM.

How did the IC50 (H929 myeloma cells; [17]) turn out when “KQKLKT1N*VVAWT3 (cyclo(KQKLK[T1][Nle]VVAW[T3])) [Peptide 20]” was run?
Its IC50 is 15 µM.

And the IC50 (H929 myeloma cells; [18])?
Its IC50 is 18 µM.

B1: biotin-HYD1 (biotin conjugated HYD1, all D-amino acid peptide kikmviswkg) (peptide)
peptide: [dK][dI][dK][dM][dV][dI][dS][dW][dK]G
modifications: also: biotin conjugated, site not given here
Which results are given for B1?
Peptide match (peptide match hits) [2]: 8; Peptide match (peptide match hits) [3]: 5; Peptide match (peptide match hits) (CD59 [4]): 2; Peptide match (peptide match hits) [5]: 6; Peptide match (peptide match hits) [6]: 3; Peptide match (peptide match hits) [7]: 6; Peptide match (peptide match hits) [8]: 7; Peptide match (peptide match hits) [9]: 7; Peptide match (peptide match hits) (CD59 [10]): 2; Peptide match (peptide match hits) [11]: 4; Peptide match (peptide match hits) [12]: 5; Peptide match (peptide match hits) [13]: 3; Peptide match (peptide match hits) (β1 integrin): 2; Kd [14]: 0.0244 µM; Kd [15]: 0.026 µM; # peptides identified (CD59 [16]): 3 peptides
